± gives the uncertainty stated by the source.
Assay: protein stability index of a GFP-peptide fusion (yeast GPS) (PSI 1-4); higher = more stable; sorted into four equal gates, so the index is relative within each strain
Procedure, shortened: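 Tiled 17-residue peptides from yeast proteins were fused downstream of GFP on a plasmid that also expresses Cherry, and the pooled library was carried in yeast. Mid-log cultures grown in leucine-free medium were sorted into four equal gates by GFP/Cherry fluorescence ratio. Plasmids from each gate were PCR-amplified and Illumina-sequenced, and reads were assigned to strains by barcodes. Each peptide's protein stability index is the sum, over gates, of the gate's read frequency multiplied by its gate number.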

Sequence | protein stability index (doa10∆) | protein stability index (pdr5∆) | protein stability index (san1∆) | protein stability index (ubr1∆)
RNESLKNNSSIRNVIMS [SRB8] | 1.81 ± 0.035 | 2.11 ± 0.049 | 1.87 ± 0.084 | 2.09 ± 0.039
HNLHPQIGQVPLAPAPI [SNF5] | 2.54 ± 0.062 | 2.23 ± 0.065 | 2.56 ± 0.059 | 2.76 ± 0.063
YKIKGRNNSKSVLLKKL [SRP72] | – | 1.56 ± 0.11 | 2.42 ± 0.26 | 1.06 ± 0.11
LSDLSSPVQDWNLLRSL [YML103C/NUP188] | 3.29 ± 0.14 | 3.07 ± 0.17 | 2.86 ± 0.1 | 2.65 ± 0.14
SEKGFSKEQIHGSIIIL [YCS4] | 2.71 ± 0.12 | 2.37 ± 0.077 | 2.76 ± 0.076 | 2.73 ± 0.087
STVKKKDIVNISIPKTC [REC8] | 2.71 ± 0.088 | 2.41 ± 0.063 | 2.53 ± 0.084 | 2.62 ± 0.054
EDARRNPNPSSQRAQVV [RPC37] | 3.18 ± 0.073 | 3.26 ± 0.064 | 3.02 ± 0.064 | 3.38 ± 0.054
RSSYMLELVNTPLTENI [YCG1] | 3.11 ± 0.096 | 3.18 ± 0.082 | 3.04 ± 0.073 | 2.91 ± 0.084
KFENDELAESTTTKIID [LRP1] | 2.04 ± 0.13 | 2.47 ± 0.12 | 2.23 ± 0.086 | 2.27 ± 0.053
NQMKVAPIPKQLLQRIP [GAL11] | 2.28 ± 0.07 | 2.54 ± 0.062 | 2.52 ± 0.054 | 2.3 ± 0.043
PHTTLVNECIAQSHQRF [CDC53] | 2.79 ± 0.066 | 2.92 ± 0.052 | 2.85 ± 0.055 | 2.98 ± 0.039
LISDSNINNSSVAEKEE [SWI3] | 1.6 ± 0.14 | 1.73 ± 0.13 | 1.56 ± 0.12 | 1.55 ± 0.11
IQNDIYLNDLMITKRIL [RPN12] | 2.34 ± 0.18 | 2.76 ± 0.14 | 2.72 ± 0.25 | 2.65 ± 0.12
RLLAKDAMIAQRSKKIQ [DIS3] | 1.24 ± 0.1 | 1.92 ± 0.091 | 1.41 ± 0.072 | 1.59 ± 0.069
QQWGNDFYKRDPRIAPL [FAS2] | 1.88 ± 0.058 | 2 ± 0.048 | 1.87 ± 0.1 | 2 ± 0.05
ESELSLLEETQAKLKKN [SMC4] | 2.7 ± 0.17 | 3.37 ± 0.2 | 2.88 ± 0.23 | 3.11 ± 0.14
QNKKNLKWVAVVPDLGH [SSN2] | 2.67 ± 0.085 | 3.07 ± 0.051 | 2.81 ± 0.07 | 3.02 ± 0.1
VNDTVKIDLASGKITDF [RPS4A] | 3.07 ± 0.12 | 3.17 ± 0.1 | 3.26 ± 0.12 | 2.71 ± 0.15
LKSFTESTAGSASTSAT [ECM29] | 2.82 ± 0.067 | 3.14 ± 0.061 | 3.06 ± 0.053 | 3.15 ± 0.04
QLIKVAVHNGDRKHVAA [RPL9B] | 2.09 ± 0.054 | 2.48 ± 0.059 | 2.28 ± 0.061 | 2.65 ± 0.027
LTHPKYLNSRIIPTTLE [YML103C/NUP188] | 2.1 ± 0.035 | 2.26 ± 0.041 | 2.05 ± 0.049 | 2.25 ± 0.036
LEGEELAFYLRRLTAKK [RPS8A] | 1.9 ± 0.068 | 1.75 ± 0.068 | 1.93 ± 0.1 | 3.05 ± 0.099
QVVLGGTSKYLINGHRA [SMC2] | 2.88 ± 0.059 | 3.19 ± 0.066 | 2.97 ± 0.062 | 2.96 ± 0.065
GTSLTIQHIAAAMVPFI [CDC53] | 2.75 ± 0.05 | 2.91 ± 0.046 | 2.6 ± 0.066 | 3.03 ± 0.043
HWNLPGERIFNKIRNLE [SIR2] | 3.3 ± 0.098 | 3.23 ± 0.097 | 3.2 ± 0.056 | 3.29 ± 0.068
AIPNPEDVVAISSRTYG [RPS0B] | 3.33 ± 0.11 | 3.07 ± 0.055 | 2.99 ± 0.079 | 3.09 ± 0.047
DLENKFNRLKKQAHEKL [YIL149C/MLP2] | 2.75 ± 0.11 | 2.71 ± 0.067 | 2.3 ± 0.17 | 2.81 ± 0.063

Sequence | protein stability index (doa10∆) | protein stability index (pdr5∆) | protein stability index (san1∆) | protein stability index (ubr1∆)
SSEILSYLSNSLDTSAS [YML103C/NUP188] | 2.96 ± 0.091 | 2.7 ± 0.069 | 2.25 ± 0.063 | 2.65 ± 0.055
YLRVSFKNTRETAQAIN [RPL17A] | 1.51 ± 0.03 | 1.34 ± 0.042 | 1.5 ± 0.1 | 1.31 ± 0.034
TKKISNFNSSLHKRQQF [YJL039C/NUP192] | 2.73 ± 0.13 | 2.79 ± 0.12 | 1.4 ± 0.18 | 1.6 ± 0.11
PEQYSDILLNERVWNIC [AAR2] | 3.38 ± 0.12 | 3.23 ± 0.22 | 2.68 ± 0.18 | 2.99 ± 0.18
AGVEDVYTQSNGKTRTL [RPS2] | 2.76 ± 0.11 | 3.21 ± 0.084 | 3.28 ± 0.066 | 3.48 ± 0.057
EPAEANEENDLDVDPAK [RPB2] | 3.3 ± 0.18 | 3.15 ± 0.19 | 3.17 ± 0.13 | 3.41 ± 0.17
NTSSKRQKKKPTSAQKS [IRR1] | 2.71 ± 0.084 | 2.59 ± 0.08 | 2.5 ± 0.061 | 2.87 ± 0.07
DLKSLNVRDDMKPSDNI [SSN2] | 2.94 ± 0.22 | 2.59 ± 0.18 | 2.62 ± 0.16 | 2.57 ± 0.097
SVINNYLREDQMIDTSI [NUT1] | 2.99 ± 0.074 | 3.32 ± 0.1 | 3.32 ± 0.083 | 2.84 ± 0.082
VKQIAPAELEGLLDLER [FAS2] | 3.11 ± 0.3 | – | – | –
RNARAARAAKIAPRPLD [RPL13B] | 2.86 ± 0.12 | 3.11 ± 0.09 | 3.14 ± 0.074 | 2.45 ± 0.056
DEDEDEDEDDDDDDDED [QCR6] | 2.25 ± 0.039 | 1.96 ± 0.036 | 2.05 ± 0.047 | 1.98 ± 0.05
GKETIARVTGGMKVKAD [RPS14B] | 1.42 ± 0.1 | 1.24 ± 0.096 | 1.85 ± 0.11 | 2.6 ± 0.11
EFETPTFLVSNDDEVSQ [RPN14] | 2.69 ± 0.092 | 2.89 ± 0.084 | 2.72 ± 0.079 | 2.77 ± 0.13
NIPQQQQMQPPNSSANN [GAL11] | 2.82 ± 0.062 | 2.9 ± 0.062 | 2.85 ± 0.048 | 2.75 ± 0.041
GGCDYIFSLLTGYPDEP [CYT1] | 3.42 ± 0.14 | 3.39 ± 0.15 | 2.77 ± 0.081 | 3.08 ± 0.081
KWKPVLSHIVYFLVLSP [RPN5] | 1.39 ± 0.033 | 1.25 ± 0.031 | 1.2 ± 0.057 | 1.15 ± 0.025
IFTDFLPSSNGSSRIIA [RRP42] | 3.15 ± 0.085 | 2.89 ± 0.084 | 3.07 ± 0.073 | 2.8 ± 0.069
KDSSLNYSSESYRNAFT [YJL039C/NUP192] | 2.89 ± 0.06 | 2.32 ± 0.064 | 2.02 ± 0.069 | 2.85 ± 0.047
GLYKMMEERDGAKFENI [AAR2] | 1.49 ± 0.19 | 1.87 ± 0.12 | 1.68 ± 0.2 | 1.74 ± 0.056
VEASRRRRSSTNKSKRP [MED1] | 3.19 ± 0.066 | 3.31 ± 0.056 | 3.22 ± 0.044 | 3.28 ± 0.043
HGKPTKGSSLASAASEA [SSN8] | 1.95 ± 0.08 | 2.42 ± 0.068 | 2.19 ± 0.088 | 2.73 ± 0.032
SLLEKDIDAVNGAVGKR [ISW2] | 2.92 ± 0.09 | 3.24 ± 0.081 | 2.9 ± 0.098 | 3.31 ± 0.064
RDYLVDTLKLRENLHIL [RRP6] | 3.52 ± 0.098 | 3.29 ± 0.096 | 3.4 ± 0.069 | 3.29 ± 0.084
KRNKYAAMLTSENAREI [RRP45] | 3.04 ± 0.063 | 3.1 ± 0.063 | 3.08 ± 0.057 | 2.96 ± 0.043
YVNALADVLYKTAFKPH [QCR2] | 3.04 ± 0.054 | 3.06 ± 0.048 | 2.72 ± 0.038 | 2.81 ± 0.05
GLNDLVEQYKFRETTHS [BRR2] | 3.16 ± 0.091 | 3.03 ± 0.074 | 2.84 ± 0.082 | 3.1 ± 0.061
